The values below come from patent publication CN112979797A (CHINESE ACAD INSPECTION & QUARANTINE, dated 2021).

The target of the experiment is T1, 原核表达的带HIS标签的重组蛋白SBV-N (SBV, UniProt H2AM13 1-233).
T1 sequence: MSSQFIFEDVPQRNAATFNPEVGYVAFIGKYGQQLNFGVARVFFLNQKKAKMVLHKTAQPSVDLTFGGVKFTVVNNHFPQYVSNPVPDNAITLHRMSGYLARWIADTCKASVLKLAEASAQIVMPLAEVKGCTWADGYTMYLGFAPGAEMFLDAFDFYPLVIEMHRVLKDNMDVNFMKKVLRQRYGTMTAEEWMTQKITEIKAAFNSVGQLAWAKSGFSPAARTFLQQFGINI
Description: Western blot, hybridoma supernatant on His-tagged recombinant protein. In general terms: A western blot detects proteins with antibodies after separation by electrophoresis.

B1: 单克隆抗体2D3 (antibody, V domains shown)
VH: EVQLQQSKTELVRSGASVKLSCTASGFNIKDYFIHWVKQRPEQGLEWIGWIDPENGDTEYAPKFQGKATMTADTSSNTAYLQLGSLTSEDTAVYYCYSRGWHLENLEYWGQGTTLTVSS
VL: DVLMTQTPLSLPVSLGDQASISCRSSQSIVHSNGNTYLEWYLQKPGQSPKLLIYKVSNRFSGVPDRFSGSGSGTDFTLKISRVEAEDLGVYYCFQGSHVPRTFGGGTKLEIKR
notes: also called 2D3单抗; 2D3抗体
Turning to B1, the binding result is “no binding”.
